Test results from paper doi:10.1101/2024.04.02.587704.

Target: ReoM-His from the ΔprkA ΔmurZ strain LMPR29 (unphosphorylated at Thr-7) (L. monocytogenes) (UniProt B8DE07)
Experiment: cross-linking + pull-down

Sequence of UniProt B8DE07 (B8DE07 whole entry, stated change not applied): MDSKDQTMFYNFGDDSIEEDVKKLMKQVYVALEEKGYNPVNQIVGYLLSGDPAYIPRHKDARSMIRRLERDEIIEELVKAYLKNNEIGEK

B1: MurA (L. monocytogenes UDP-N-acetylglucosamine 1-carboxyvinyltransferase) (enzyme)
chain: MEKIIVRGGKQLNGSVKMEGAKNAVLPVIAATLLASKGTSVLKNVPNLSDVFTINEVLKYLNADVSFVNDEVTVDATGEITSDAPFEYVRKMRASIVVMGPLLARTGSARVALPGGCAIGSRPVDLHLKGFEAMGAVVKIENGYIEATAEKLVGAKVYLDFPSVGATQNIMMAATLAEGTTVIENVAREPEIVDLANFLNQMGARVIGAGTEVIRIEGVKELTATEHSIIPDRIEAGTFMIAAAITGGNVLIEDAVPEHISSLIAKLEEMGVQIIEEENGIRVIGPDKLKAVDVKTMPHPGFPTDMQSQMMVIQMLSEGTSIMTETVFENRFMHVEEMRRMNADMKIEGHSVIISGPAKLQGAEVAATDLRAAAALILAGLVADGYTQVTELKYLDRGYNNFHGKLQALGADVERVDDSKVDVTNLASLF
fold MurA copurified, against the prkA+ strain: 3 fold
